# Data reported in the MegaScale stability set (Tsuboyama et al. 2023).
# B1: r4_43_TrROS_Hall (parent)
# chain: DLVTIKVPLENLEEIKKAAEKAGFKIVSISYDKENKEVTIVIEKKK
# B2: 6YSE (parent)
# chain: HERALMVNRLQKLTRMLRVHPDPKWKQEQQELIKRLK
# Variants of: B1
# Experiment: folding stability dG (cDNA display proteolysis); higher = more stable
# Conditions: PBS, room temperature
row,Variant,folding stability dG [kcal/mol]
1,DLGTIKVPLENLEEIKKAAEKAGFKIVSISYDKENKEVTIVIEKKK [V3G],3.13
2,DLKTIKVPLENLEEIKKAAEKAGFKIVSISYDKENKEVTIVIEKKK [V3K],3.45
3,DLFTIKVPLENLEEIKKAAEKAGFKIVSISYDKENKEVTIVIEKKK [V3F],4.06
4,DLTTIKVPLENLEEIKKAAEKAGFKIVSISYDKENKEVTIVIEKKK [V3T],3.66
5,DLETIKVPLENLEEIKKAAEKAGFKIVSISYDKENKEVTIVIEKKK [V3E],3.1
6,DLDTIKVPLENLEEIKKAAEKAGFKIVSISYDKENKEVTIVIEKKK [V3D],3.18
7,DLATIKVPLENLEEIKKAAEKAGFKIVSISYDKENKEVTIVIEKKK [V3A],3.33
8,DLSTIKVPLENLEEIKKAAEKAGFKIVSISYDKENKEVTIVIEKKK [V3S],3.62
9,DLRTIKVPLENLEEIKKAAEKAGFKIVSISYDKENKEVTIVIEKKK [V3R],3.4
10,DLQTIKVPLENLEEIKKAAEKAGFKIVSISYDKENKEVTIVIEKKK [V3Q],3.65
11,DLWTIKVPLENLEEIKKAAEKAGFKIVSISYDKENKEVTIVIEKKK [V3W],4.34
12,DLPTIKVPLENLEEIKKAAEKAGFKIVSISYDKENKEVTIVIEKKK [V3P],2.93
13,DLITIKVPLENLEEIKKAAEKAGFKIVSISYDKENKEVTIVIEKKK [V3I],3.36
14,DLHTIKVPLENLEEIKKAAEKAGFKIVSISYDKENKEVTIVIEKKK [V3H],3.69
15,DLYTIKVPLENLEEIKKAAEKAGFKIVSISYDKENKEVTIVIEKKK [V3Y],4.03
16,DLNTIKVPLENLEEIKKAAEKAGFKIVSISYDKENKEVTIVIEKKK [V3N],3.25
17,DLCTIKVPLENLEEIKKAAEKAGFKIVSISYDKENKEVTIVIEKKK [V3C],3.72
18,DLMTIKVPLENLEEIKKAAEKAGFKIVSISYDKENKEVTIVIEKKK [V3M],3.66
19,DLLTIKVPLENLEEIKKAAEKAGFKIVSISYDKENKEVTIVIEKKK [V3L],3.62
20,RLVTIKVPLENLEEIKKAAEKAGFKIVSISYDKENKEVTIVIEKKK [D1R],3.42
21,ELVTIKVPLENLEEIKKAAEKAGFKIVSISYDKENKEVTIVIEKKK [D1E],3.66
22,CLVTIKVPLENLEEIKKAAEKAGFKIVSISYDKENKEVTIVIEKKK [D1C],3.7
23,QLVTIKVPLENLEEIKKAAEKAGFKIVSISYDKENKEVTIVIEKKK [D1Q],3.82

row,Variant,folding stability dG [kcal/mol]
1,HLVTIKVPLENLEEIKKAAEKAGFKIVSISYDKENKEVTIVIEKKK [D1H],3.83
2,ALVTIKVPLENLEEIKKAAEKAGFKIVSISYDKENKEVTIVIEKKK [D1A],3.81
3,WLVTIKVPLENLEEIKKAAEKAGFKIVSISYDKENKEVTIVIEKKK [D1W],4.07
4,GLVTIKVPLENLEEIKKAAEKAGFKIVSISYDKENKEVTIVIEKKK [D1G],3.47
5,MLVTIKVPLENLEEIKKAAEKAGFKIVSISYDKENKEVTIVIEKKK [D1M],4.1
6,KLVTIKVPLENLEEIKKAAEKAGFKIVSISYDKENKEVTIVIEKKK [D1K],3.81
7,NLVTIKVPLENLEEIKKAAEKAGFKIVSISYDKENKEVTIVIEKKK [D1N],3.79
8,VLVTIKVPLENLEEIKKAAEKAGFKIVSISYDKENKEVTIVIEKKK [D1V],4
9,FLVTIKVPLENLEEIKKAAEKAGFKIVSISYDKENKEVTIVIEKKK [D1F],3.9
10,SLVTIKVPLENLEEIKKAAEKAGFKIVSISYDKENKEVTIVIEKKK [D1S],3.84
11,LLVTIKVPLENLEEIKKAAEKAGFKIVSISYDKENKEVTIVIEKKK [D1L],3.84
12,TLVTIKVPLENLEEIKKAAEKAGFKIVSISYDKENKEVTIVIEKKK [D1T],3.83
13,YLVTIKVPLENLEEIKKAAEKAGFKIVSISYDKENKEVTIVIEKKK [D1Y],3.87
14,ILVTIKVPLENLEEIKKAAEKAGFKIVSISYDKENKEVTIVIEKKK [D1I],3.87
15,PLVTIKVPLENLEEIKKAAEKAGFKIVSISYDKENKEVTIVIEKKK [D1P],3.56
16,DRVTIKVPLENLEEIKKAAEKAGFKIVSISYDKENKEVTIVIEKKK [L2R],3.58
17,DNVTIKVPLENLEEIKKAAEKAGFKIVSISYDKENKEVTIVIEKKK [L2N],3.23
18,DCVTIKVPLENLEEIKKAAEKAGFKIVSISYDKENKEVTIVIEKKK [L2C],3.41
19,DEVTIKVPLENLEEIKKAAEKAGFKIVSISYDKENKEVTIVIEKKK [L2E],3.45
20,DTVTIKVPLENLEEIKKAAEKAGFKIVSISYDKENKEVTIVIEKKK [L2T],3.93
21,DKVTIKVPLENLEEIKKAAEKAGFKIVSISYDKENKEVTIVIEKKK [L2K],3.52
22,DPVTIKVPLENLEEIKKAAEKAGFKIVSISYDKENKEVTIVIEKKK [L2P],3.23
23,DGVTIKVPLENLEEIKKAAEKAGFKIVSISYDKENKEVTIVIEKKK [L2G],3.42

row,Variant,folding stability dG [kcal/mol]
1,DAVTIKVPLENLEEIKKAAEKAGFKIVSISYDKENKEVTIVIEKKK [L2A],3.4
2,DMVTIKVPLENLEEIKKAAEKAGFKIVSISYDKENKEVTIVIEKKK [L2M],3.66
3,DSVTIKVPLENLEEIKKAAEKAGFKIVSISYDKENKEVTIVIEKKK [L2S],3.39
4,DVVTIKVPLENLEEIKKAAEKAGFKIVSISYDKENKEVTIVIEKKK [L2V],3.91
5,DYVTIKVPLENLEEIKKAAEKAGFKIVSISYDKENKEVTIVIEKKK [L2Y],4.08
6,DWVTIKVPLENLEEIKKAAEKAGFKIVSISYDKENKEVTIVIEKKK [L2W],3.78
7,DFVTIKVPLENLEEIKKAAEKAGFKIVSISYDKENKEVTIVIEKKK [L2F],3.76
8,DQVTIKVPLENLEEIKKAAEKAGFKIVSISYDKENKEVTIVIEKKK [L2Q],3.85
9,DDVTIKVPLENLEEIKKAAEKAGFKIVSISYDKENKEVTIVIEKKK [L2D],3.35
10,DIVTIKVPLENLEEIKKAAEKAGFKIVSISYDKENKEVTIVIEKKK [L2I],3.13
11,DHVTIKVPLENLEEIKKAAEKAGFKIVSISYDKENKEVTIVIEKKK [L2H],3.43
12,DLVCIKVPLENLEEIKKAAEKAGFKIVSISYDKENKEVTIVIEKKK [T4C],3.44
13,DLVMIKVPLENLEEIKKAAEKAGFKIVSISYDKENKEVTIVIEKKK [T4M],3.65
14,DLVDIKVPLENLEEIKKAAEKAGFKIVSISYDKENKEVTIVIEKKK [T4D],2.98
15,DLVKIKVPLENLEEIKKAAEKAGFKIVSISYDKENKEVTIVIEKKK [T4K],3.56
16,DLVAIKVPLENLEEIKKAAEKAGFKIVSISYDKENKEVTIVIEKKK [T4A],3.92
17,DLVNIKVPLENLEEIKKAAEKAGFKIVSISYDKENKEVTIVIEKKK [T4N],3.45
18,DLVLIKVPLENLEEIKKAAEKAGFKIVSISYDKENKEVTIVIEKKK [T4L],3.46
19,DLVIIKVPLENLEEIKKAAEKAGFKIVSISYDKENKEVTIVIEKKK [T4I],3.54
20,DLVFIKVPLENLEEIKKAAEKAGFKIVSISYDKENKEVTIVIEKKK [T4F],3.68
21,DLVGIKVPLENLEEIKKAAEKAGFKIVSISYDKENKEVTIVIEKKK [T4G],3.14
22,DLVEIKVPLENLEEIKKAAEKAGFKIVSISYDKENKEVTIVIEKKK [T4E],3.5
23,DLVHIKVPLENLEEIKKAAEKAGFKIVSISYDKENKEVTIVIEKKK [T4H],3.64

# Variants of: B2
# Experiment: as above
# Conditions: PBS, room temperature
row,Variant,folding stability dG [kcal/mol]
1,HERALMVNRLQKLTRMLRVHPDPKWKQEQQELIKRLH [K37H],1.19
2,HERALMVNRLQKLTRMLRVHPDPKWKQEQQELIKRLR [K37R],1.55
3,HERALMVNRLQKLTRMLRVHPDPKWKQEQQELIKRLV [K37V],0.95
4,HERALMVNRLQKLTRMLRVHPDPKWKQEQQELIKRLN [K37N],1.24
5,HERALMVNRLQKLTRMLRVHPDPKWKQEQQELIKRLE [K37E],1.05
6,HERALMVNRLQKLTRMLRVHPDPKWKQEQQELIKRLW [K37W],1.43
7,HERALMVNRLQKLTRMLRVHPDPKWKQEQQELIKRLF [K37F],1.68
8,HERALMVNRLQKLTRMLRVHPDPKWKQEQQELIKRLD [K37D],0.831
9,HERALMVNRLQKLTRMLRVHPDPKWKQEQQELIKRLS [K37S],1.19
10,HERALMVNRLQKLTRMLRVHPDPKWKQEQQELIKRLT [K37T],1.25
11,HERALMVNRLQKLTRMLRVHPDPKWKQEQQELIKRLG [K37G],1.27
12,HERALMVNRLQKLTRMLRVHPDPKWKQEQQELIKRLM [K37M],1.7
13,HERALMVNRLQKLTRMLRVHPDPKWKQEQQELIKRLQ [K37Q],1.8
14,HERALMVNRLQKLTRMLRVHPDPKWKQEQQELIKRLL [K37L],1.42
15,HERALMVNRLQKLTRMLRVHPDPKWKQEQQELIKRLY [K37Y],1.74
16,HERALMVNRLQKLTRMLRVHPDPKWKQEQQELIKRLI [K37I],1.08
17,HERALMVNRLQKLTRMLRVHPDPKWKQEQQELINRLK [K34N],1
18,HERALMVNRLQKLTRMLRVHPDPKWKQEQQELIIRLK [K34I],1.31
19,HERALMVNRLQKLTRMLRVHPDPKWKQEQQELIRRLK [K34R],1.51
20,HERALMVNRLQKLTRMLRVHPDPKWKQEQQELIWRLK [K34W],0.902
21,HERALMVNRLQKLTRMLRVHPDPKWKQEQQELIYRLK [K34Y],1.02
22,HERALMVNRLQKLTRMLRVHPDPKWKQEQQELISRLK [K34S],1.07
23,HERALMVNRLQKLTRMLRVHPDPKWKQEQQELITRLK [K34T],1.27
24,HERALMVNRLQKLTRMLRVHPDPKWKQEQQELIHRLK [K34H],1.11
25,HERALMVNRLQKLTRMLRVHPDPKWKQEQQELIQRLK [K34Q],1.25
26,HERALMVNRLQKLTRMLRVHPDPKWKQEQQELIMRLK [K34M],1.34

row,Variant,folding stability dG [kcal/mol]
1,HERALMVNRLQKLTRMLRVHPDPKWKQEQQELIVRLK [K34V],1.03
2,HERALMVNRLQKLTRMLRVHPDPKWKQEQQELILRLK [K34L],1.15
3,HERALMVNRLQKLTRMLRVHPDPKWKQEQQELIKGLK [R35G],-0.14
4,HERALMVNRLQKLTRMLRVHPDPKWKQEQQELIKQLK [R35Q],1.19
5,HERALMVNRLQKLTRMLRVHPDPKWKQEQQELIKSLK [R35S],0.493
6,HERALMVNRLQKLTRMLRVHPDPKWKQEQQELIKELK [R35E],0.729
7,HERALMVNRLQKLTRMLRVHPDPKWKQEQQELIKILK [R35I],1.58
8,HERALMVNRLQKLTRMLRVHPDPKWKQEQQELIKMLK [R35M],0.84
9,HERALMVNRLQKLTRMLRVHPDPKWKQEQQELIKALK [R35A],1.24
10,HERALMVNRLQKLTRMLRVHPDPKWKQEQQELIKKLK [R35K],1.51
11,HERALMVNRLQKLTRMLRVHPDPKWKQEQQELIKNLK [R35N],0.739
12,HERALMVNRLQKLTRMLRVHPDPKWKQEQQELIKTLK [R35T],0.734
13,HERALMVNRLQKLTRMLRVHPDPKWKQEQQELIKLLK [R35L],1.73
14,HERALMVNRLQKLTRMLRVHPDPKWKQEQQELIKFLK [R35F],1.18
15,HERALMVNRLQKLTRMLRVHPDPKWKQEQQELIKWLK [R35W],1.42
16,HERALMVNRLQKLTRMLRVHPDPKWKQEQQELIKDLK [R35D],-0.514
17,HERALMVNRLQKLTRMLRVHPDPKWKQEQQELIKHLK [R35H],0.82
18,HERALMVNRLQKLTRMLRVHPDPKWKQEQQELIKYLK [R35Y],1.16
19,HERALMVNRLQKLTRMLRVHPDPKWKQEQQELIKVLK [R35V],1.14
20,HERALMVNRLQKLTRMLRVHPDPKWKQEQQELIKRMK [L36M],0.478
21,HERALMVNRLQKLTRMLRVHPDPKWKQEQQELIKRFK [L36F],0.524
22,HERALMVNRLQKLTRMLRVHPDPKWKQEQQELIKRYK [L36Y],-0.212
23,HERALMVNRLQKLTRMLRVHPDPKWKQEQQELIKRIK [L36I],0.873
24,HERALMVNRLQKLTRMLRVHPDPKWKQEQQELIKRRK [L36R],-0.888
25,HERALMVNRLQKLTRMLRVHPDPKWKQEQQELIKRWK [L36W],-0.411
